Measured values taken from patent US20100260765A1 (AstraZeneca / MedImmune, published 2010).

Tests used:
soluble KDR Ig4-7 domain [1] = biological target: T1, soluble KDR Ig4-7 domain (human, UniProt P35968 328-764); experiment: ELISA, KDR Ig4-7 coat (1:1 diln.), antibody 1 ug/mL
T1 construct: domain: Ig4-7 domain; also called b-KDRIg4-7-myc-his; Ig4-7 domain of KDR; not shown: myc-his tag of the pSecTag construct
In short: (§1)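 ELISA; plate-coated mouse Flk-1/Fc or soluble KDR Ig4-7; purified Ab applied; IgG1/IgG4 isotype controls.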

human KDR [2] = biological target: T2, human KDR (human, UniProt P35968 20-1356); experiment: cell-based or functional assay
T2 sequence (P35968 20-1356): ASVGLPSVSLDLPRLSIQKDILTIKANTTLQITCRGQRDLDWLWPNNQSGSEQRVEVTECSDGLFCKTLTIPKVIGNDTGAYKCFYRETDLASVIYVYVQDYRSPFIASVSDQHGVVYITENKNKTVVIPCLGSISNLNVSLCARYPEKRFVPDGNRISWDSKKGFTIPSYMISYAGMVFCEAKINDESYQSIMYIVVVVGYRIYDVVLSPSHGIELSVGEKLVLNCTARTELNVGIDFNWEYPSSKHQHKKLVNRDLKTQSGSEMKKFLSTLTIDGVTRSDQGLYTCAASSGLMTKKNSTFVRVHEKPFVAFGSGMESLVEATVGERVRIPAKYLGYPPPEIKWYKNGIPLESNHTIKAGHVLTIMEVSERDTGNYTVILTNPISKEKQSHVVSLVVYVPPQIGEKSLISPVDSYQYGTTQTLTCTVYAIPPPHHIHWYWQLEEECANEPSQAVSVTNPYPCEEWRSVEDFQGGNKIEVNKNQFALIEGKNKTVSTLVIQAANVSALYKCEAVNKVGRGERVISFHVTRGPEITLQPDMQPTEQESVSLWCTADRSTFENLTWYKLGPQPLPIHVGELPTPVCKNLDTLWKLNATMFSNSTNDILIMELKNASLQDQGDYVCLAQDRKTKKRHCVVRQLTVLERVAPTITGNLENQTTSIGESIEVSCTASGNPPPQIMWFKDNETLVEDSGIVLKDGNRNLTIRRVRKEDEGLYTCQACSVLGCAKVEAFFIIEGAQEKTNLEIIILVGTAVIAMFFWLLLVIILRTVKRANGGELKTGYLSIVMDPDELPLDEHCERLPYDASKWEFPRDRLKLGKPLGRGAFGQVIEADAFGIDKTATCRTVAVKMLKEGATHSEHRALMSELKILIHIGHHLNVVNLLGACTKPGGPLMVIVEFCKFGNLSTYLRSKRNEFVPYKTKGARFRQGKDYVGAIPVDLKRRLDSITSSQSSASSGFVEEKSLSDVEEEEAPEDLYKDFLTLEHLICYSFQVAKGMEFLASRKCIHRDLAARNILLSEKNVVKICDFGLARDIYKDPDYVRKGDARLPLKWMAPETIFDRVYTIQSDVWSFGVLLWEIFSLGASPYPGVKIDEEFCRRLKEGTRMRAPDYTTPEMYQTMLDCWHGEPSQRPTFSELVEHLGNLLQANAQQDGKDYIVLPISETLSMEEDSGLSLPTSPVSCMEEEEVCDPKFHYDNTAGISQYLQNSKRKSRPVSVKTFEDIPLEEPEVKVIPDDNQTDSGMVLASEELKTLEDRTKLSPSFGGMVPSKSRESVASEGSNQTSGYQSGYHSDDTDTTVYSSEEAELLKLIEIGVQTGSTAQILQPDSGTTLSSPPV

human KDR [3] = biological target: T2, human KDR; experiment: FACS competition on 293T/human KDR transfectants; antibody 5 ug/mL first, then competitor VEGF165 50 ng/mL; inhibition of VEGF binding
Procedure: (§2) Transfected cells were then seeded at 50,000 cells/well and incubated with 5 μg/mL of candidate antibody for one hour at 4° C. […] After washing, the cells were incubated with Cy5-conjugated rabbit anti-goat antibody plus 7AAD for 15 minutes at 4° C.

soluble KDR Ig4-7 domain [4] = biological target: T1, soluble KDR Ig4-7 domain; experiment: ELISA, KDR Ig4-7 coat (1:1 diln.), antibody 0.1 ug/mL
In short: as §1

human KDR [5] = biological target: T2, human KDR; experiment: cell-based or functional assay; remark: listed apart in the source
human KDR [6] = biological target: T2, human KDR; experiment: FACS competition on 293T/human KDR transfectants; antibody 5 ug/mL first, then competitor VEGF165 50 ng/mL; bound VEGF165 detected
Procedure: as §2

human KDR [7] = biological target: T2, human KDR; experiment: cell-based or functional assay; remark: listed apart in the source
[8] = biological target: T3, mouse KDR (Flk-1)/Fc (Cat. #443-KD/CF, R&D Systems, Inc.) (mouse, UniProt P35918 20-762); experiment: ELISA, Flk-1 coat 5 ug/mL, antibody 1 ug/mL
T3 construct: Bought reagent; also called mouse VEGFR2; KDR mouse ortholog; not shown: Fc of the bought fusion protein
T3 sequence (P35918 20-762 limits assumed): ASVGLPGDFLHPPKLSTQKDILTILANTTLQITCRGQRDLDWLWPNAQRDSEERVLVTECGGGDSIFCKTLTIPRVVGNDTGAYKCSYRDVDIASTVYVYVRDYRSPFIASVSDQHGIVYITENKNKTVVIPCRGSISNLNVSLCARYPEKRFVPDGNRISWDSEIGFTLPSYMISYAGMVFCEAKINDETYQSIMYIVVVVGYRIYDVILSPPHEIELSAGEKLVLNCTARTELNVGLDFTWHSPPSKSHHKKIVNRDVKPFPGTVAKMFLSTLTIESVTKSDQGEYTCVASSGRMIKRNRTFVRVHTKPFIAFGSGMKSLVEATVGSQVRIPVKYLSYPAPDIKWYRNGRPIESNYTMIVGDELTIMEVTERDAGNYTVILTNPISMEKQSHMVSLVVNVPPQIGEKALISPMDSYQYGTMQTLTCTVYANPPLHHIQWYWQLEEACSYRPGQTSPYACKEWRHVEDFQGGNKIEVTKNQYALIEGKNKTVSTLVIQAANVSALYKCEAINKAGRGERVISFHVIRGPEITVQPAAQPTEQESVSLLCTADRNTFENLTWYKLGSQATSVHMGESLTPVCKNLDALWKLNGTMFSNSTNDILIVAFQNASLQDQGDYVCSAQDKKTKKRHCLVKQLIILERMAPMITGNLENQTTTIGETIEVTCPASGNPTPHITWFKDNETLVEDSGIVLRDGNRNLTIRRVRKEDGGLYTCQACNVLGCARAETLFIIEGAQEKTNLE
In short: as §1

[9] = biological target: T3, mouse KDR (Flk-1)/Fc (Cat. #443-KD/CF, …); experiment: ELISA, Flk-1 coat 5 ug/mL, antibody 0.1 ug/mL
In short: as §1

soluble KDR Ig4-7 domain [10] = biological target: T1, soluble KDR Ig4-7 domain; experiment: ELISA, KDR Ig4-7 coat (1:1 diln.), antibody 0.01 ug/mL
In short: as §1

[11] = biological target: T4, whole KDR-ECD (Cat. # 676490, Calbiochem) (human, UniProt P35968 20-764); experiment: ELISA, KDR-ECD coat 5 ug/mL, antibody 0.1 ug/mL
T4 construct: extracellular domain; Bought soluble protein; also called soluble KDR; VEGF Receptor 2 D1-7
T4 sequence (P35968 20-764): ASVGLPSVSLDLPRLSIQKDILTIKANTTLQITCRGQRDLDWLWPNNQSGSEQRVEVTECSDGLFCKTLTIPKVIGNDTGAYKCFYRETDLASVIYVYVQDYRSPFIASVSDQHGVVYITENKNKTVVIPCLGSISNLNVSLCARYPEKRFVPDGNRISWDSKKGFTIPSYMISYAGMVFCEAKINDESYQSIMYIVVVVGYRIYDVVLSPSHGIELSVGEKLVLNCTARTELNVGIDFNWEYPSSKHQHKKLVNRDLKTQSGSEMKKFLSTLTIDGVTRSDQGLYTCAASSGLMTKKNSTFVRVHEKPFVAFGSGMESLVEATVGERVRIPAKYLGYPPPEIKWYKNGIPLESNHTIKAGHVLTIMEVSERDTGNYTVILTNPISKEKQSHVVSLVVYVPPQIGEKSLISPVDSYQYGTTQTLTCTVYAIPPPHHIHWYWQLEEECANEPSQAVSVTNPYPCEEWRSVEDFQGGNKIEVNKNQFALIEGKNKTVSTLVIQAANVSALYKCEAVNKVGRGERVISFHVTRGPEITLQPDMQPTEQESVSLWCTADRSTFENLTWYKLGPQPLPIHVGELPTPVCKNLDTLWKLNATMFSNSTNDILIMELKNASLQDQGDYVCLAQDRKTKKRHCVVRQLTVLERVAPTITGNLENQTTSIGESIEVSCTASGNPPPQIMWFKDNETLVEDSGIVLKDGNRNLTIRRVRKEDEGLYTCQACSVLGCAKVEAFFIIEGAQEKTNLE
In short: (§3)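 Coat wells with the recombinant receptor protein, add purified antibody, then detect the bound antibody by ELISA. Isotype IgG1 and IgG4 are run alongside as controls.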

[12] = biological target: T4, whole KDR-ECD (Cat. # 676490, …); experiment: ELISA, KDR-ECD coat 5 ug/mL, antibody 1 ug/mL
In short: as §3

human KDR [13] = biological target: T2, human KDR; experiment: FACS titration of purified antibody on HUVEC cells (FACS Kd)
Procedure: The binding affinities of the purified antibodies for endogenously-expressed KDR in HUVEC cells was measured. HUVEC cells were seeded at 150,000 cells/well and incubated with titrations of purified antibody for 4 hours at 4° C. The cells were then washed and incubated with goat anti-human IgG-Fc-Cy5+5 μg/mL 7-Amino-Actinomycin (7AAD) for 30 minutes at 4° C. Bound KDR was detected using FACS analysis.

[14] = biological target: T3, mouse KDR (Flk-1)/Fc (Cat. #443-KD/CF, …); experiment: ELISA, Flk-1 coat 5 ug/mL, antibody 0.01 ug/mL
In short: as §1

cynomolgus KDR = biological target: T5, cynomolgus KDR (cynomolgus monkey, UniProt A0A2K5VE63 20-1356); experiment: FACS on Cyno KDR/293T transfectants, antibody 5 ug/mL
T5 construct: whole, on cells; also called Cyno KDR
T5 sequence (A0A2K5VE63 entry or part of it): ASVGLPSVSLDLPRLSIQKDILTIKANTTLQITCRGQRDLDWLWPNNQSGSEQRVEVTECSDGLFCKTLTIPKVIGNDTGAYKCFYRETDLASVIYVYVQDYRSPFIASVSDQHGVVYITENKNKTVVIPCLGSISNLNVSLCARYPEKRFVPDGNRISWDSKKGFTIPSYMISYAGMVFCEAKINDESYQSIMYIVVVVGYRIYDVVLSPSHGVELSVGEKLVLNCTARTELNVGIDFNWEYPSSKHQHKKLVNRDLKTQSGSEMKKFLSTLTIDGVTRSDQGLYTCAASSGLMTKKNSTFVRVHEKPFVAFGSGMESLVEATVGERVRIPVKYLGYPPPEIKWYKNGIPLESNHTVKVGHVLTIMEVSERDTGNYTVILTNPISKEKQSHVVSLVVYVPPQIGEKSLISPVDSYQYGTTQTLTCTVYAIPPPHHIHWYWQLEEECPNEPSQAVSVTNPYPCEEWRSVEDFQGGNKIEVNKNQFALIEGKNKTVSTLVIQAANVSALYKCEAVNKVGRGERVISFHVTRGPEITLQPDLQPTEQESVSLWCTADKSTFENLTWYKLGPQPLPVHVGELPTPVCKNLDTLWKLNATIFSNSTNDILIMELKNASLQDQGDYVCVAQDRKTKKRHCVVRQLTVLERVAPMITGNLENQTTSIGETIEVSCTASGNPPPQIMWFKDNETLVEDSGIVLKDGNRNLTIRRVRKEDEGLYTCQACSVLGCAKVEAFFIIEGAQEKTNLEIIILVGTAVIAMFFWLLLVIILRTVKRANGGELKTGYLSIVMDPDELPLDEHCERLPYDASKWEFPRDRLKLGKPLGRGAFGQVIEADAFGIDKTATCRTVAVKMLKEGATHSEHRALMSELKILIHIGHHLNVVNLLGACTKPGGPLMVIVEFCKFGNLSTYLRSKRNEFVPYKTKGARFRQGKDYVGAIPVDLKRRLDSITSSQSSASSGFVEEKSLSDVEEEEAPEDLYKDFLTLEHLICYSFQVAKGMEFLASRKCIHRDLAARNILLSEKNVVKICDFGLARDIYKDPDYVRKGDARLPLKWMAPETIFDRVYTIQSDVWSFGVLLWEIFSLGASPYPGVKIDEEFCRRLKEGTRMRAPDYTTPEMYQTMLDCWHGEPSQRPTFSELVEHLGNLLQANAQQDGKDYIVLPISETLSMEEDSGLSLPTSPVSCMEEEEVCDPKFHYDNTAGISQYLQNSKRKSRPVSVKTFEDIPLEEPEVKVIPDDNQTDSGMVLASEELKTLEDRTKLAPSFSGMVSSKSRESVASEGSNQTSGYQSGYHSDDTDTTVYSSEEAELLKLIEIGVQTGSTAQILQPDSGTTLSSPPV
Procedure: The binding of purified antibodies to cell-bound cynomolgus KDR (with parental cells as negative control) was tested by FACS analysis in this assay.
Cynomolgus KDR was cloned in 3 pieces. One piece was PCR amplified from cynomolgus lung cDNA, and the remaining two pieces were PCR amplified from cynomolgus kidney cDNA. The three PCR products were inserted into pCR3.1 Bid vector. […] Transfected cells were seeded at 50,000 cells/well and incubated with 5 μg/mL of candidate antibody for one hour at 4° C. The cells were then washed and incubated with secondary antibody (Cy5-conjugated goat anti-human antibody, or Cy5-conjugated rabbit anti-goat antibody, plus 7-Amino-Actinomycin (7AAD)) for 15 minutes at 4° C. Binding between cynomolgus KDR and purified antibody was detected by FACS analysis.

[15] = biological target: T4, whole KDR-ECD (Cat. # 676490, …); experiment: ELISA, KDR-ECD coat 5 ug/mL, antibody 0.01 ug/mL
In short: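 Purified antibodies were tested by ELISA for binding to immobilised target protein to assess cross-reactivity with the mouse ortholog and binding to the soluble Ig4-7 fragment. IgG1 and IgG4 isotype antibodies served as controls.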

T1 sequence (P35968 328-764): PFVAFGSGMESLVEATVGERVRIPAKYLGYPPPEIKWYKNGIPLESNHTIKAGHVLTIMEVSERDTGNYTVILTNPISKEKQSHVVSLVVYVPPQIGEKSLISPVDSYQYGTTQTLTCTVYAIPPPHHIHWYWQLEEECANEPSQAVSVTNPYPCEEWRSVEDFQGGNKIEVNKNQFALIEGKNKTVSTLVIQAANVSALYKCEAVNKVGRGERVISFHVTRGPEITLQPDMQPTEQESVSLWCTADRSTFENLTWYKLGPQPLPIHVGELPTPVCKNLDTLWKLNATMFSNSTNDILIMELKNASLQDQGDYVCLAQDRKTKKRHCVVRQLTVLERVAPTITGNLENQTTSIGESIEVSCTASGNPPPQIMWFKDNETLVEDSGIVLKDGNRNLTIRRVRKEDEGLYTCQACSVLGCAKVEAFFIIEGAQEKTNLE

Binder	ELISA reading (soluble KDR Ig4-7 domain [1])	KDR tyrosine phosphorylation in HUVEC, EC50 (nM), Average (human KDR [2]) [nM]	KDR tyrosine phosphorylation in HUVEC, EC50 (nM), N = 1 (human KDR [2]) [nM]	KDR tyrosine phosphorylation in HUVEC, EC50 (nM), N = 2 (human KDR [2]) [nM]	KDR tyrosine phosphorylation in HUVEC, Maximum Inhibition at 100 nM (% Inhibition), Average (human KDR [2]) [%]	KDR tyrosine phosphorylation in HUVEC, Maximum Inhibition at 100 nM (% Inhibition), N = 1 (human KDR [2]) [%]	KDR tyrosine phosphorylation in HUVEC, Maximum Inhibition at 100 nM (% Inhibition), N = 2 (human KDR [2]) [%]	% Inhibition (human KDR [3]) [%]	ELISA reading (soluble KDR Ig4-7 domain [4])	6-keto Prostaglandin F1α release, EC50 (nM), Average (human KDR [5]) [nM]	6-keto Prostaglandin F1α release, EC50 (nM), N = 1 (human KDR [5]) [nM]	6-keto Prostaglandin F1α release, EC50 (nM), N = 2 (human KDR [5]) [nM]	6-keto Prostaglandin F1α release, Maximum Inhibition (% Inhibition), Average (human KDR [5]) [%]	6-keto Prostaglandin F1α release, Maximum Inhibition (% Inhibition), N = 1 (200 nM) (human KDR [5]) [%]	6-keto Prostaglandin F1α release, Maximum Inhibition (% Inhibition), N = 2 (333 nM) (human KDR [5]) [%]	FACS Geometric Mean Fluorescence (bound VEGF165) (human KDR [6])	HUVEC survival, Maximum Inhibition at 50 nM (% Inhibition), Average (human KDR [7]) [%]	HUVEC survival, Maximum Inhibition at 50 nM (% Inhibition), N = 1 (human KDR [7]) [%]	HUVEC survival, Maximum Inhibition at 50 nM (% Inhibition), N = 2 (human KDR [7]) [%]	ELISA reading [8]	also measured
33E1 (antibody, V domains shown, Fully human monoclonal antibody from a XenoMouse hybridoma (IgG2 or IgG4 strain), purified) VH: QVQLQESGPGLVKPSQTLSLTCTVSGGSISSGDHYWSWIRQHPGKGLEWIGHIYYSGSTDYNPSLKSRVTISVDTSKNHFSLKLNSVTAADTAVYYCARTNSSSWSDWYFDLWGRGTLVTVSS VL: DIVMTQSPDSLAVSLGERATINCKSSQSILYSSNNKNYLAWYQRKPGQPPILLIHWASTRESGVPDRFSGSGSRTDFTLTISSLQAEDVAVYYCQQYFITPWTFGQGTKVEIK	0.107	5.5	5.8	5.1	74	73	75	-15	0.074	5.1	4.8	5.4	90	77	103	147	103	107	99	2.17	ELISA reading [9]: 1.47; ELISA reading (soluble KDR Ig4-7 domain [10]): 0.067; ELISA reading [11]: 0.205; ELISA reading [12]: 1.38; Kd (human KDR [13]): 3.8 nM; ELISA reading [14]: 0.846; FACS Geometric Mean Fluorescence (cynomolgus KDR): 88.5; ELISA reading [15]: 0.081
31E11 (antibody, V domains shown, Fully human monoclonal antibody from a XenoMouse hybridoma (IgG2 or IgG4 strain), purified) VH: QVQLVESGGGLVKPGGSLRLSCAASGFTFSDYYMSWIRQAPGKGLEWVSYISISGSTIYYADSVKGRFTISRDNAKNSLYLQMNSLRAEDTAVYYCARDDFWSGYYFNWFDPWGQGTLVTVSS VL: DIQMTQSPSSLSASVGDRVTITCRANQTISTFLNWYQQNPGKAPKLLIYAASSLQSGVPSRFSGSGSGTDFTLTISSLQPEDFATYYCQQTYIIPLTFGGGTKVEIK	0.107	1.9	2	1.9	85	84	86	-8	0.073	6.2	6.1	6.4	98	88	108	138	101	101	101	3.1	ELISA reading [9]: 2.37; ELISA reading (soluble KDR Ig4-7 domain [10]): 0.072; ELISA reading [11]: 0.161; ELISA reading [12]: 1.96; Kd (human KDR [13]): 11.3 nM; ELISA reading [14]: 0.826; FACS Geometric Mean Fluorescence (cynomolgus KDR): 99.5; ELISA reading [15]: 0.08
33C3 (antibody, V domains shown, Fully human monoclonal antibody from a XenoMouse hybridoma (IgG2 or IgG4 strain), purified) VH: QVQLVESGGGLVKPGESLRLSCAASGFTFSDYYMSWIRQAPGKGLEWVSYISHGGSTIYYADSVKGRFTISRDNAKNSLYLQMNSLRVEDTAVYFCARDDFWSGYYFNWFDPWGQGALVTVSS VL: DIQMTQYPLSLSASVGDRVTITCRASQSISSFLNWYHQKPGKAPKLLIYGTSSLQSGVPSRFSGSGSGTDFTLTISSLQPEDFATYYCQQTYSIPLTFGGGTNVEIK	0.094	1.2	1.2	1.1	85	83	86	2	0.088	3.9	3.5	4.4	85	76	94	126	101	106	95	3.48	ELISA reading [9]: 3.04; ELISA reading (soluble KDR Ig4-7 domain [10]): 0.073; ELISA reading [11]: 0.153; ELISA reading [12]: 1.11; Kd (human KDR [13]): 1 nM; ELISA reading [14]: 1.25; FACS Geometric Mean Fluorescence (cynomolgus KDR): 108; ELISA reading [15]: 0.09
22B8 (antibody, V domains shown, Fully human monoclonal antibody from a XenoMouse hybridoma (IgG2 or IgG4 strain), purified) VH: QLQLQESGPGLVKPSETLSLTCTVSGGSISSRYYYWGWVRQPPGKGLEWIGTIYYSGHTYYNPSLKTRVTISVDTSKNQFSLKLISVTAADTAVYYCATQQLVLYYFDFWGQGTLVTVSS VL: EIVLTQSPGTLSLSPGERAALSCRASQSISSSYLAWYQQRPGQAPRLLIYGASSRATGIPDRFNGSGSGTDFTLTISRLEPEDFAVYYCQQFGSSITFGQGTRLEIK	0.08	3.1	2.7	3.4	77	75	79	7	0.078	5.3	5.1	5.6	70	63	76	120	87	80	95	3.21	ELISA reading [9]: 2.94; ELISA reading (soluble KDR Ig4-7 domain [10]): 0.074; ELISA reading [11]: 0.089; ELISA reading [12]: 1.91; Kd (human KDR [13]): 1.8 nM; ELISA reading [14]: 1.2; FACS Geometric Mean Fluorescence (cynomolgus KDR): 103; ELISA reading [15]: 0.075
